Measurements reported in patent US20080267944.

Test system: prothrombin

## recombinant prothrombin activating protease (rLopap)
  prothrombin activation (thrombin formation followed with S-2238 chromogenic substrate): The native Lopap and the rLopap are able to activate prothrombin using preferentially the S-2238 substrate
  prothrombin activation, compared with native Lopap: in same concentrations, rLopap is less efficient
  prothrombin hydrolysis (SDS-PAGE of fragments; prothrombin 10 uM, rLOPAP 2 uM): Under non-reduced conditions bands of 72 kDa (prothrombin), of 52 kDa probably corresponding to the prothrombin F1.2, one of 36 kDa corresponding to the thrombin or to the prethrombin 2, and one of 24 kDa corresponding to the fragment 1 (F1) of the prothrombin could be observed
  prothrombin hydrolysis in presence and absence of Factor Va (SDS-PAGE): The same hydrolysis standards were obtained in presence and in absence of the Factor Va
